{
  "source": "patent US20150010525A1",
  "about": "“Catalytic Tagging System to Study Macro-Molecular Interactions Using Engineered Ubiquitin Ligase and Ubiquitin-Like Proteins to Facilitate Substrate Identification” (THE REGENTS OF THE UNIVERSITY OF CALIFORNIA, priority 2012, published 2015)",
  "key": {"XIAP [1]": {"target": "T1, XIAP (Homo sapiens, UniProt P61081+P98170)", "T1 construct": "The N-terminus (residues 1-434) of XIAP was then fused via a flexible Gly-Gly-Ser-Gly linker to the NEDD8 E2, Ubc12; GST (N, cleaved yes); made in house; host or cells: E. coli BL21 (DE3)", "T1 sequence (P98170+P61081 fused)": "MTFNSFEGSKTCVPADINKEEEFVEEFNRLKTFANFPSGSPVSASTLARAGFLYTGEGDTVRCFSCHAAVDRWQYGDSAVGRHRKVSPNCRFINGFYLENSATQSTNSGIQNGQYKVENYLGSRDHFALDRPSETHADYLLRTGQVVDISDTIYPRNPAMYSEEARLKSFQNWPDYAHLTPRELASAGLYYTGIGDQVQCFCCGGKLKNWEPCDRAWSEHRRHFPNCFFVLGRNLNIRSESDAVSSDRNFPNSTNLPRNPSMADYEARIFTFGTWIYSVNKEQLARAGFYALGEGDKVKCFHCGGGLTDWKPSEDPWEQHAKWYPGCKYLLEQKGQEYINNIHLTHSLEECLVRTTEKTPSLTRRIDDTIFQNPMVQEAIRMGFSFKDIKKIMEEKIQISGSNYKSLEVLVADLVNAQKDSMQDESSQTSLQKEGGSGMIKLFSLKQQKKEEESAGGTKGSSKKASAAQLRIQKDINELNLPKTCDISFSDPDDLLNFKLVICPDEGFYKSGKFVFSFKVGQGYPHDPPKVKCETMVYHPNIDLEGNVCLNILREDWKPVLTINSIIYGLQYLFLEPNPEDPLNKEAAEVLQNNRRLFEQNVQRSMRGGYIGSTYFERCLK", "test": "SILAC mass spectrometry screen for XIAP substrates with NEDDylator^XIAP in apoptotic Jurkat cell lysate", "type": "biochemical", "conditions": "Heavy lysate with Ubc12", "protocol": "Jurkat cells were grown in media containing either light or heavy isotopes of lysine and arginine and induced to undergo apoptosis with STS. Light cell extracts were incubated with the respective catalytic tagging system for each of the two IAPs and the heavy extracts labeled only with the wild-type NEDD8 E2, Ubc12. 64 mg regular L-Lys and 83.6 mg L-Arg.HCl were added to 1 liter RPMI-1640 minus L-Lys and L-Arg (Thermo/Pierce), 10% fetal bovine serum (FBS) to generate “Light” medium. 100 mg ^13C6^15N2 L-Lys.2HCl and 86 mg ^13C6 L-Arg.HCl (Cambridge Isotope) were added to the same amount of medium to generate the “Heavy” medium. Jurkat cells were cultured separately in “Light” or “Heavy” medium for 7 days to allow for thorough isotope incorporation. For IAP substrate identification, 400 million cells were treated with 2 μM STS for 4 hours, harvested, lysed in M-PER mammalian protein extraction buffer (Thermo/Pierce) in the presence of protease inhibitors (100× ProteoBlock cocktail, Fermentas) and mixed with cell lysate prepared from 400 million untreated cells. The NEDDylated proteins were isolated under denaturing conditions via the HB-NEDD8 tag using a tandem affinity pull down procedure (Tagwerker et al., Mol Cell Proteomics 5:737-748 (2006)) (FIG. 11). Purified NEDDylated proteins were trypsinized and analyzed with tandem mass spectrometry (LC-MS/MS).\nFor SILAC experiments, Jurkat cells were cultured separately in “Light” (supplemented with regular Lys and Arg) or “Heavy” (supplemented with ^13C6^15N2 Lys and ^13C6 Arg) medium for 7 days to allow for thorough isotope incorporation. Apoptotic “Light” and “Heavy” cell extracts were prepared individually. The lysates were cleared by spinning and then diluted in 50 mM HEPES pH 7.4, 150 mM NaCl to 5 mg/ml and supplemented with 5 mM ATP, 10 mM MgCl2. Endogenous NEDD8 E1 is cell lysate was used to catalyze the reaction. HB-NEDD8 was added to both lysate at mass ratio 1:500; the catalytic tagging system was added to the “Light” lysate at mass ratio 1:1000. Equal molar of Ubc12 was added to the “Heavy” lysate. […] NEDDylated proteins were separated by one-dimensional SDS-PAGE, and trypsinized for LC-MS/MS analysis.\nFor liquid chromatography—Tandem mass spectrometry (LC-MS/MS) analysis, the tryptic peptides were first desalted and concentrated with a C18 Ziptip (Millipore). LC-MS/MS was carried out by reverse phase LC interfaced with a LTQ-Orbitrap (ThermoFisher Scientific) hybrid mass spectrometer. A nanoflow HPLC (NanoAcquity UPLC system, Waters Corporation) was equipped with a trap column (180 μm×20 mm, 5 μm SymmetryC18, from Waters) and an analytical column (100 μm×100 mm, 1.7 μm BEH130C18, from Waters). […]"}, "XIAP [2]": {"target": "XIAP (Homo sapiens, UniProt P98170)", "sequence (P98170 whole entry)": "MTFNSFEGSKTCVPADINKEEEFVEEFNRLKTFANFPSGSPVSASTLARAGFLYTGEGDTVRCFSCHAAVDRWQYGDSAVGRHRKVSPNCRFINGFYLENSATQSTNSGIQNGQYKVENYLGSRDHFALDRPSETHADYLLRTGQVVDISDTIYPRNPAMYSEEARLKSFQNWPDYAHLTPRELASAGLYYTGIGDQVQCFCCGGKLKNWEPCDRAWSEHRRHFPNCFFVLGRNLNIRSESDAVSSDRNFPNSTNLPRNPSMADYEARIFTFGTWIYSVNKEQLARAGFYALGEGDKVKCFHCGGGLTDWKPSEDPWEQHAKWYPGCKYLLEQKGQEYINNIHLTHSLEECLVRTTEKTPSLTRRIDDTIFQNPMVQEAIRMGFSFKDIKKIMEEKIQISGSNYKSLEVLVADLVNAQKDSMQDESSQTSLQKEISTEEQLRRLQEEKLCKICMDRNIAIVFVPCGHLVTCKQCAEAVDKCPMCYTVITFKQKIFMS", "test": "In vitro PGAM5 ubiquitination assay with XIAP", "type": "biochemical", "conditions": "50 nM UBE1, 200 nM UbcH5b, 700 nM XIAP, 1.5 μM PGAM5-His6", "text": "FIG. 12 illustrates the identification of the proteolytic form of PGAM5 as an XIAP and cIAP1 substrate in vitro. […] Overall, 15 unique peptides from PGAM5 were recovered and account for 43% of the entire protein sequence. (B) An example of LC-MS/MS spectrum from endogenous PGAM5 N-terminal peptide after subtiligase labeling and positive enrichment. A non-natural amino acid, 2-aminobutyric acid (Abu), is a designed tag showing characteristic labeling by subtiligase. (C) PGAM5 is cleaved into a truncated form in cells. Jurkat cells were transiently transfected with C-terminal Myc tagged full length PGAM5 or PGAM5 (Δ2-24). […] (D) N-terminal amino acid sequence alignment of PGAM5(Δ24) and other known evolutionarily conserved IBM sequences. Reaper, Hid, and Grim are Drosophila proteins that bind DIAP1, the Drosophila IAP. Amino acids are colored according to their chemical properties. (E) XIAP binds PGAM5(Δ24) but not the full length PGAM5. Recombinant GST fused XIAP, PGAM5(FL), and PGAM5(Δ24) were used for in vitro GST pull down experiments. (F) PGAM5(Δ24) binds to XIAP and cIAP1 independent of the RING domain. […] The resins were washed and proteins were eluted and analyzed with SDSPAGE and coomassie blue staining. […] The ubiquitination assay was performed in vitro and PGAM5 is detected with an anti-His antibody. […]"}},
  "data": [
    {"molecule": "Serine/threonine-protein phosphatase PGAM5, mitochondrial: phosphoglycerate mutase family member 5, dimeric protein phosphatase (protein, UniProt Q96HS1 1-289, looked up, full-length, phosphoglycerate mutase family member 5, dimeric protein phosphatase) MAFRQALQLAACGLAGGSAAVLFSAVAVGKPRAGGDAEPRPAEPPAWAGGARPGPGVWDPNWDRREPLSLINVRKRNVESGEEELASKLDHYKAKATRHIFLIRHSQYHVDGSLEKDRTLTPLGREQAELTGLRLASLGLKFNKIVHSSMTRAIETTDIISRHLPGVCKVSTDLLREGAPIEPDPPVSHWKPEAVQYYEDGARIEAAFRNYIHRADARQEEDSYEIFICHANVIRYIVCRALQFPPEGWLRLSLNNGSITHLVIRPNGRVALRTLGDTGFMPPDKITRS", "values": [
      {"measurement": "L/H (Light/Heavy ratio)", "setting": "XIAP [1]", "result": 5.88},
      {"measurement": "ubiquitination by XIAP", "setting": "XIAP [2]", "result": "not the full length protein"}
    ]}
  ]
}
